Measurements: article PMC5600700
Blank lines part the entries; values can stand above or below the substance they belong to.

Legend:
Cx45 CT = Cx45 CT (UniProt P36383); settings: cited from earlier work
[1] = biological target: Cx45CT WT (Lyn-HA-Cx45CT-mVenusN and Lyn-Myc-Cx45CT-mVenusC) (not stated (human or mouse cDNA cloned)); assay: split reporter
[2] = biological target: Cx45 6E (stably expressed in MDCK cells) (not stated (human or mouse cDNA cloned)) (UniProt P28229); assay: co-IP
Chain of UniProt P28229 (P28229 whole entry L335E/L338E/L349E/I353E/Y356E): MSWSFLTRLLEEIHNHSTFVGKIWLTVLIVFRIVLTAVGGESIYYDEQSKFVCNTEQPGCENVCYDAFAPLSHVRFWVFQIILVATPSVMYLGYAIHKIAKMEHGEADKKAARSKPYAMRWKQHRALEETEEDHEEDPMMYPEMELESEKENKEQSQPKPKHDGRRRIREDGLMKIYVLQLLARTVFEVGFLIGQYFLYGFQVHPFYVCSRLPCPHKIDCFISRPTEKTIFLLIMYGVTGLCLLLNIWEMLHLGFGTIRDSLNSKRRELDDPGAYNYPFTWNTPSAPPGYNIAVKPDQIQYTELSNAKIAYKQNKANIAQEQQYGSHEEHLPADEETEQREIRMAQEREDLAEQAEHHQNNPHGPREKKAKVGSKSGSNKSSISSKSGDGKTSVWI

Chain of Cx45 CT (P36383 265-396): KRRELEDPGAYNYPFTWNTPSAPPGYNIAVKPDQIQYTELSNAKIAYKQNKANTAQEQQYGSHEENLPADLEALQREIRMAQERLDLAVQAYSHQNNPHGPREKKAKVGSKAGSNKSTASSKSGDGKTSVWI

Substance: Cx45 CT (from UniProt P36383)
Kd (Cx45 CT): 100 nM

fold mVenus signal at the plasma membrane (normalized to Myc) over Cx45CT 6E [1]: 2.5 fold
Substance: Cx45CT WT (Lyn-HA-Cx45CT-mVenusN and Lyn-Myc-Cx45CT-mVenusC) (domain or fragment)

fold increase of the co-immunoprecipitated amount relative to Cx45 WT [2]: 2 fold
Substance: developmentally regulated brain protein (Drebrin) (natural protein)

fold decrease of the co-immunoprecipitated amount relative to Cx45 WT [2]: 2 fold
Substance: neural precursor cell expressed developmentally down-regulated protein 4 (Nedd4) (enzyme)

fold decrease of the co-immunoprecipitated amount relative to Cx45 WT [2]: 3 fold
Substance: β-tubulin (natural protein)
